We go through 5 variants from article PMC6222848, “Spatial Overlap of Claudin- and Phosphatidylinositol Phosphate-Binding Sites on the First PDZ Domain of Zonula Occludens 1 Studied by NMR” (Molecules : A Journal of Synthetic Chemistry and Natural …, 2018).

B1: GST-tagged mouse ZO-1(PDZ1) (residues 18–110) [mouse] / His6-tagged thioredoxin (Trx) fusion protein of mouse CLD-3 C-terminus (Trx-CLD3, residues 210–219) [mouse] (parent complex)
chain 1: IWEQHTVTLHRAPGFGFGIAISGGRDNPHFQSGETSIVISDVLKGGPAEGQLQENDRVAMVNGVSMDNVEHAFAVQQLRKSGKNAKITIRRKK
chain 2: GTAYDRKDYV

The variants in the experiment derive from B1. Nature of the experiment: SPR; absence of phytic acid (gray bar); parent: 1.2e+03; read off a plot.
Consider chain 1 IWEQHTVTLHRAPGFGAGIAISGGRDNPHFQSGETSIVISDVLKGGPAEGQLQENDRVAMVNGVSMDNVEHAFAVQQLRKSGKNAKITIRRKK [chain 1 F17A], for which the response is approximately 15 RU.
Under chain 1 IWEQHTVTLHRAPGFGFGIAISGGRDNPHFQSGETSIVISAVLKGGPAEGQLQENDRVAMVNGVSMDNVEHAFAVQQLRKSGKNAKITIRRKK [chain 1 D41A] stands approximately 110 RU.
With chain 1 IWEQHTVTLHRAPGFGFGIAISGGRDNPHFQSGETSIVISDVLKGGPAEGQLQENDRVAMVNGVSMDNVEHAFAVQQLAKSGKNAKITIRRKK [chain 1 R79A], the response was approximately 40 RU.
To chain 1 IWEQHTVTLHRAPGFGFGIAISGGRDNPHFQSGETSIVISDVAKGGPAEGQLQENDRVAMVNGVSMDNVEHAFAVQQLRKSGKNAKITIRRKK [chain 1 L43A] belongs approximately 28 RU; to chain 1 IWEQHTVTLHRAPGFGFGIAISGGRDNPHFQSGETSIVISDVLKGGPAEGQLQENDRVAMVNGVSMDNVEHAFAAQQLRKSGKNAKITIRRKK [chain 1 V75A], approximately 22 RU.
